This note sets out measurements from publication PMC9167820, “An experimental study of the effects of SNPs in the TATA boxes of the GRIN1, ASCL3 and NOS1 genes on interactions with the TATA-binding protein”.

The target in data set [1] is TATA-binding protein (TBP) (Homo sapiens) (UniProt P20226). Put plainly: EMSA (kinetic, kd/ka). The note with it: 20 mM HEPES-KOH pH 7.6, 5 mM MgCl2, 70 mM KCl, 1 mM DTT, 100 ug/ml BSA, 0.01% NP-40, 5% 'XYZ' (so in the source), 25 C; TBP 0.4 nM; gel 5% PAGE Tris-glycine pH 8.3 …. In general terms: In EMSA bound probe runs differently from free probe, usually more slowly.

Data set [2] has as its target TATA-binding protein (TBP) (Homo sapiens, UniProt P20226 1-339). Put plainly: EMSA (kinetic, kd/ka); 20 mM HEPES-KOH pH 7.6, 5 mM MgCl2, 70 mM KCl, 1 mM DTT, 100 ug/ml BSA, 0.01% NP-40, 5% 'XYZ' (so in the source), 25 C; TBP 0.4 nM; gel 5% PAGE Tris-glycine pH 8.3, 10 C. The note with it: protein: recombinant; label: 32P; blunt.

TATA-binding protein (TBP), sequence (P20226 whole entry): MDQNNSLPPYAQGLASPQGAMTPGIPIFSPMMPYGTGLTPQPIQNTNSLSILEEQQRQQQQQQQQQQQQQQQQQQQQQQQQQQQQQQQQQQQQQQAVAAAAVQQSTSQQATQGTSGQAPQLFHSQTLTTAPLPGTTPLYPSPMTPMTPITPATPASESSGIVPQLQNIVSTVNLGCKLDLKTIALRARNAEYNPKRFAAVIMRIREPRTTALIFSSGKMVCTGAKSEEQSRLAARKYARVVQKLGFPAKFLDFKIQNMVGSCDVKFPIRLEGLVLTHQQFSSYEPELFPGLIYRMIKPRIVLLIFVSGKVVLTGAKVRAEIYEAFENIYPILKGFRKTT
TATA-binding protein (TBP) (Homo sapiens), sequence (P20226 whole entry): as above

Broadly, the Kd is the free concentration of one partner at which half of the binding sites on the other are occupied at equilibrium, for simple one-to-one binding. In the case of “TCGAAAAATAAAACAAAATAAAACAT (double strand) [ASCL3 -45T>C (rs1049743008)]”, the Kd in data set [1] came out at 17 nM.

B1: NOS1 -27G>A (rs1195040887) (dsDNA)
DNA 1: TGTTTCCTGATAAAAAAAAAAAATGG
DNA 2: CCATTTTTTTTTTTTATCAGGAAACA
With B1, in data set [2], the Kd came out at 59 ± 9 nM.

B2: NOS1 WT (dsDNA)
DNA 1: TGTTTCCTGATAGAAAAAAAAAATGG
DNA 2: CCATTTTTTTTTTCTATCAGGAAACA
For the molecule B2, in data set [2], the dissociation constant (Kd) was 70 ± 20 nM.

B3: GRIN1 WT (dsDNA)
DNA 1: TGGAGGGGGACAAAGACAGGGTGGTG
DNA 2: CACCACCCTGTCTTTGTCCCCCTCCA
In the case of B3, in data set [2], the Kd is 320 ± 50 nM.

B4: GRIN1 -34G>A (rs1402667001) (dsDNA)
DNA 1: TGGAGGAGGACAAAGACAGGGTGGTG
DNA 2: CACCACCCTGTCTTTGTCCTCCTCCA
Take B4: the dissociation constant (Kd) in data set [2] stood at 200 ± 50 nM.

B5: ASCL3 WT (dsDNA)
DNA 1: TCGAAAAATAAAATAAAATAAAACAT
DNA 2: ATGTTTTATTTTATTTTATTTTTCGA
Take B5: in data set [2], the Kd is 12 ± 5 nM.
